Data taken from the domain aggregation screens of Martell et al. (2025).

Test: soluble fraction after stress (log2 fold change); higher = more stays soluble; pooled small domains, quantitative proteomics
Details: stress: 50 degC
Method in brief: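 Pooled custom libraries of small protein domains were each held under stress at 50°C. The read-out, high-throughput quantitative proteomics, tracked how much of each protein stayed soluble. This is reported as a base-two log fold change used to indicate aggregation propensity. Higher values mean more protein remains in solution.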

Sequence | soluble fraction (log2)
HMGAYIPSYAPVDINAATHTVVRGDTVYNISKRYHVSQEDFRAWNGMADNTLSIGQVVKVKPAGYTAPK | -0.087
HMVAMGQRVVPLTHLSIDDVRRLLESTYGKDSGIEVTKPGTAAKGVIVTAPRTELDGIVALVKQA | 0.0987
HMGPELGENEKLIFDIIKKESKMELGILKAQVDLSNKKWDKALKGLATHGLTKVNKTDDGLFIELI | -0.095
HMFKDVTVPSVINKTEAEATNMLKGLNLVVSVEYEENANKSDGIVTAQNVNANKVIKEGETVTITVNKQP | 0.00765
HMSQDVLLKRSGDQIEVKITEVGEDYLKYKKKGFENGPDFKINTSDVFMVTFANGEKMMFEES | 0.0105
HMVSKTEAMAVFIADKLQEGMVPANEILELYKGMQLSDRTIRNAKKQLGIVSIRKDGQWYWSL | -1.19
HMPKTATIVIDLNYADAKEIVENLQTILAGETKDISVAPHPSANQIIASGDRWEVENISTIIKQLDR | 0.00694
HMAVSVPDVMGLTYEEAYNKITAEGLLVNRLESYTGLVEKGRVISQLPVGGEPAAKGSTVNVNVSL | 0.252
HMGEAIPVPDLKHKALTDAEHLVHELGLEIQVVDTGYVKSLPADYILGQSLAPGEKVKSGHIIYVTINSP | -0.0167
HMSSDDEAFKRELVGLIPHLRAFARTLTGDPTAADDLAQDAMMKAWDARASYQMGTNMKAWTFMILRNQFY | -2.22
HMQKLKINKYKDPKGEIRYYIASTIRNGNKSSTHNLLSLGKHSDLLKEHSDVEAYLKERLNEAMESGI | -0.145
HMGGGRELGLDPETGKKISVRLGKFGPFVQLGESGEEDKPVFANLGKNQSIATLSLEEAIALLARPK | 0.246
HMGIEQVELASRVRDAVDSLPHHLREIILLSYFQKMSYNQIAETLQVPLGTVKSRLHAAVASFAQAWTQSS | -0.706
HMSEQLVGTVGHITVGTARTASPAEAKFLDAFEQPHYLLVEPIEPKDIFQQGDKVVLVKKQHHSWLATRYI | -0.267
HMNERTKIPLRKIEIGQAVYVDTLEKVGTVIDIQGKQFKVDLAGLPITVAARNLFYPLPQEAKP | -0.106
HMLLQTRQRHEALAALGYFKGDVAAAWGPASEEALRAAQAAFGITVDGKWGPQTEDAIQGALQV | -0.213
HMSIYYQIYESLKKDLSNNLYKPGEKLPSENVLSKRFGVNRHTIRRSLQLLKNEGILFSKRGSGIIVHD | -2.32
HMKNTFGLTEREMEVLALIVDGLSNPEIAEKLFITRATAKAHVHSILQKLYVDDRTQAAVTAMREGL | -1.23
HMTTPAAISKIKKLEEAKRLLATTTYSMKEIAVKLKYKSHTHFGMDFKNNTGMTPAEYRKAIKAKREKQMN | -0.0571
HMNMGKRFKELRKERKFTQQQLADRIGLAPSAISSYESGARYPSYDVLIKYSKIFHVTTDYLLG | -2.81
HMQSKSEINELPKSIHMAFSPKNFELFIDNLKINEIDFSNWKGELNTIQERVDGQRQIWIQDPQGYWIEIN | -0.018
HMKGSIFLDEATKMVDNSALKSLNTFLEEYARETNNQIFLISHQETPAEVTQIKLKKVGGETSYE | 0.124
HMRLPNHYGSVVKLSGKRRRPFMVRGGVYGYDDRGYPQYVIVGYTETREQGLTMLAEYNRNP | -3.22
HMYLELVTKEGGSFDEPDYWGRRKLAYEIAGKTEGNYVVVKYTAEPATSDELDRVLNLNESVIRTKILRK | 0.0508
HMNQWQLLSEDGAILGTRVLYHPHETEQPFTRSLSGVKIPAHVQSVTIRAGDLVHGFGGREIQMQLPPIV | -0.0987

Sequence | soluble fraction (log2)
HMGSDAFDISKLNLVGKTKESAESLLKENGFSVDTKEEASDTAAKGTVISYSPTKPKNGERVTLTVSSGK | 0.337
HMTTMNSADLIKELEKAGWTLRGVKGSHHIYTHPARGGHLSVPHPKKDLGAGLARQLRKQAGL | 0.125
HMSVLPAREQVAAILRQAILLRKFKEGQDLTLKDAAELVGSSITPVREAFQILENEGLIELRPNKGAVVL | -0.284
HMAVTFPYTAYATDAVRLRERPSSSADVLAVIRKGDAVLVTGTDGNYAIVDYEGKRGYVVSSFIAT | -0.317
HMTELNNTQRAAVLLLALDEDSAAEVFKHLSAREVQEVSQEMAKLGNISHDQMRQVLDDFYDESEQF | -0.0259
HMAASGTVNSGGDPLRVRADPNTSSQILTKLSDGTQVEVLEQAENGWYKIAHEGISGFVSGEYLVVH | 0.133
HMQYTQKTMYINDSYVNLRKSASTSSDIIMVVELNTKLTVIGEDGDWYKVKTSSGNAYVLKTLLSNEKKET | -0.108
HMNSNTIIINDIMTKIGKEVKNFTEIYSIILKALAEHGEEYVRTNTEYALKNFTGNFDIFLEQLLLK | -0.201
HMKSEMYIDLSNALLKMSERDKELLTYRYTMEMSSKEISQITGIKESNVNSYIRRAREKLLKIFNAMNK | -3.04
HMHPVEPDDPDQHILFQHLRGQDQVHIDALIRLSGWTADKVSSTLLFMELQGLVKQLPGMYYALE | -0.0844
HMIMTTKVSGIMFDKFNPSAILNINGMDYLVRSGDIINGYKILSIGQETVTVQYGANVYKASVG | -2.26
HMNSVSARRSAAITAISTGRIHSQEDLVQALKKAGYPVTQATASRDIEEIGAVRIRNQKGEMVYAIS | 0.264
HMGPPAVGSKLQDARKAQQLSLDELSKRAGVSKSMLSEVERNQANPTVGVLWRLATALGISLTDLLG | -0.374
HMGHKKLTIELQDEIIVLPKELEKYNLTVSDDKTSLIYTYKSRGEKTGITDLLRDIKDAGLRLKDLITEQ | 0.434
HMKTPRKVFTVLIRNTEYDVYDIDGKEHQGYNDTPKTWWLYHSERLPEGMIPPIDSDSWKPYSVGT | -0.831
HMNQKVRQLLSQAQAEMERKNYKQAIKLLDQALAIEPHSGELHFMKGYAWMSMGEFEKALESLYEARNYA | -0.399
HMATPEINNLGRLRNAINQSNVNWHQIIKRLQNEYPNNWRQILIAIDRHDLLFRYDVENYIKYG | -1.56
HMQTQYIVDTKTTLLVRTGPGKSNSQFGRLKNGETINVYAIKNGWAEISYNGKTGYVSEQYIKLA | -3.12
HMLGVLEYYNNGQKKSERTFKGGMQIYTEWYENGQMKAEERKWIDQLGSLKFLNLLSTEWDENGNEISRME | -1.34
HMEKKGTVVIATVKGDIHDIGKNIVKVLLENYGFDVIDLGKDVPPEAVVEAVQQSGARLVGLSALM | -0.594
HMVKFGERVKQLRLSAGMTQEQLAERIWVTKAAISNYELSERNPSPETIIKIAGVFGVTTDYLLGLED | -0.5
HMGVYDLIYLGYGINVEKEELVDQNISIIRRYANIFDPNGDIKGSTNPTYASNTAVLFNEAKFIIDGYD | -3.65
HMDIMTVGERVKKLAEKQGISLRELAKKAELSYNTVYSITRRGSERVAPDTISRLANALGVNVNELT | 0.0708
HMESIEAGTFELDNKTSIDISEDEANLLNKMFEELTETNSKDMYGVMVADEAGFNEILEFAKENL | 0.167
HMNVSDIENKLNEMLSPLEKKVMVLYLEGKSYVEIGELLGRHTKSVDNALQRVKRKLEIYLKNRK | -1.22

Sequence | soluble fraction (log2)
HMRRSKQERQQAIKTLISNEQIQRQEDLVRKLNEAGWEVTQATISRDITEMQLVKVPLPTGGFAYAVM | 0.126
HMPPPTLVESAYNHLKADIISSYLKPDEKINLKDLSQRYQVSETPIKQALNRLISEGLIISVPRKGMWVH | -0.0852
HMDGIIIPDVSGKSYAEAVATLNEKGFKVEKGEDAGSSLAKDLVSYTNPAAGNRAKSGATISVFVSTGANA | 0.17
HMGLDMSLEREQHRALREASQWYARLADEQVDSDAERAWRHWVAADEANQRAWQYIEAVSQRFDG | -0.315
HMAPVVAILTRQLPLPQAQQLAGQTALVRVVKGGPGNEAELEFAGQNIQVKLPPGRQLTAGEMVTVAFALS | 0.0876
HMTMNYYDILSIKRDATLEEIQKAYKEKSFQFHPDFNKGISDDSMFRIIKEAYETLSDTEKRNQYDASLNK | 0.232
HMNADTVIGKAGTVIEKIDNVAATGAVKIDGKVWTARSERDNITIDEGTLVKAMAIEGVKLIVEPVT | 0.198
HMEIEEIDYGTFLQMVEDGVVEKIELTDTQIFLTSTVDNDDKVYTTGVMPDQDLTNRLIEAGVVNFGKVV | -0.21
HMKKTFSKSSVMEAIFRDIPNITIPNAHEVYTLIKNISVMNKRKSITSEDIEKAYDALGLTP | -0.865
HMRIYFSPSEIGFYHESDKQAYLLAGTWPNDLLEISEKWFLYLLEGQQKGKVITVNDYDQPVLVD | -3.31
HMQNLSELAYVNLRDALMQGQMKPGEELPLRPISRSFGISATPMREALLRLVTESALEMDSRGRISVP | -0.341
HMTVTTDITQYFLQENGLLNGPNARQLRQKIGETLNIGYTNGKQLLKRAQQFGLTRDQILTALKK | -0.481
HMKKVSVKPILELRAAGISMRKIETLMHVSRHTISAIYKAADAYSISWDNVKDFDEDKIYEMLFPPTP | -1.94
HMTGMEAAEFGKRIMKLRKQKGMTQSKLAEQINVSNKAISRWETGEGFPEITLLKPLAKALGTTVDELFGE | -0.204
HMTTIHVDPEKISKIIGPGGKTIKKIVEETGAKIDIEEDGRVYIAAVNSEEAAKAIDMINGI | 0.257
HMQTKMVYSDLVNSIKSEQVSSMLVSGNTVTVTLTNGDKAKVKIPSLDTLQADVGKEMNDQMDKGTLKQE | 0.181
HMNVEGEVVVPNVIGRTMKDVAVILSDLGLRMEAEGTGVAKSSQPQHGTSVKRGTVVQVRFEPLSVN | 0.141
HMLRNDEAVMLGRRLLNKHLQAFSVQIKDISHQRIHDLLDELELESLDHLLDDIGLGNRSVFLVAQKLLQ | -1.39
HMHQALLEQSAEHAQQVKAYELLLTAERALDEENTEAFLSAMKSLKPLAENLDAKGKALYQELLPFVTEA | -0.0088
HMQYKTRVINLSILEVGMVLGRDLINKDGKIIVKKDVAISDFLKDHLIGLSKIKEIEPQIYIKV | -1.08
HMDQVLHQLVEVLRRSEIRISPAETLDAFKVLRNVGIDNKSLLREALALTLAKSIHEKIIFYETFDEFFT | -1.16
HMGGQFVKVEVIAQIFGVTVRRVQQLTQEGVVKTTEIPGEGRRYELVPTIKTYIQYLSDKAY | -4.01
HMSQLVTGVLRNLNDISEKIAAGKAVPEMLGRLENMQQMIANLKGNEGLIKSISILTRSAQDALR | 0.00825
HMYFNTADLKADSIHYGSTEQSVIKILGEPEYRETFVDNNVSYELFSYKGNLLLSFVENSLVSL | 0.0896
HMNVVINNELVSLMVEAMKDGVSSKSIQEEFEGYKISGKTITKKVLTAHVNKALEVFADMQE | -0.213
